The text below walks through data of patent publication US7235366 (dated 2007).

Positions of bridges follow the written chain, without caps; N, C: chain ends. No end group written: not given here.

The target of one test is T1, MOP2 (Mus musculus).
T1 chain: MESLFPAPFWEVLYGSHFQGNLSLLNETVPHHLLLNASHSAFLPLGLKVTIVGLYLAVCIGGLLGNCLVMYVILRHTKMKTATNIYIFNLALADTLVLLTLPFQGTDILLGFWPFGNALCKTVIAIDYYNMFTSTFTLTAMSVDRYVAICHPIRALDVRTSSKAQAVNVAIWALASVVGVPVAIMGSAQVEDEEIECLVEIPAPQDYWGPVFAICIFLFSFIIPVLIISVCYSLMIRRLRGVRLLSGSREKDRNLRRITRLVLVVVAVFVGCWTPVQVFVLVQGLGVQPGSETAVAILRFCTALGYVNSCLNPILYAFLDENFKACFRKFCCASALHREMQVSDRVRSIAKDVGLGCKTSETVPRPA
The experiment in a line: other (direct radioligand binding).

A further test has as its target T2, rat mu opioid receptor (Rattus norvegicus, UniProt P33535).
T2 chain: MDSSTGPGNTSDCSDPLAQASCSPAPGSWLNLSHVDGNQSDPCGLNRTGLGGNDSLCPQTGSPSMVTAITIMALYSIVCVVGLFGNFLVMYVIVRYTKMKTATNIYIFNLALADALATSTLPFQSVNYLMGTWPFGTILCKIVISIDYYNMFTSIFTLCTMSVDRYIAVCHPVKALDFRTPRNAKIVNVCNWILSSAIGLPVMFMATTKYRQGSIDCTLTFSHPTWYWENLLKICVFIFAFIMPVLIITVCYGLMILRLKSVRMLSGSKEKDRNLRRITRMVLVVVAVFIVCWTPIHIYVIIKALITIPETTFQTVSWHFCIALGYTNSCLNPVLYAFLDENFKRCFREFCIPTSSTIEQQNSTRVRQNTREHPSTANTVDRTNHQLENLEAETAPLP
The test is described as follows: competition.

Test [1] has as its target T3, mouse delta opioid receptor (mORD1, msl-2) (Mus musculus).
T3 chain: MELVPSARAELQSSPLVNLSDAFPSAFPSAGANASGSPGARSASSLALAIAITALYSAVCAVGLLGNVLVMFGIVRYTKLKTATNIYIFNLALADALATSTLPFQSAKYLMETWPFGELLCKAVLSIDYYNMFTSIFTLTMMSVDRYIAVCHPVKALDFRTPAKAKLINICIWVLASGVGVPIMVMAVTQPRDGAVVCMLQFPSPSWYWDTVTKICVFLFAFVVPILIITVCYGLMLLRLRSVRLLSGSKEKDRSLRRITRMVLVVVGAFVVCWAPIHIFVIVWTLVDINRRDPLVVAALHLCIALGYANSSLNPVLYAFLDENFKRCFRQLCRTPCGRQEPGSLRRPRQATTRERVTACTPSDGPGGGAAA
The experiment in a line: competition.

Test [2] concerns the target T4, delta opioid receptor D128N mutant (Mus musculus).
T4 chain: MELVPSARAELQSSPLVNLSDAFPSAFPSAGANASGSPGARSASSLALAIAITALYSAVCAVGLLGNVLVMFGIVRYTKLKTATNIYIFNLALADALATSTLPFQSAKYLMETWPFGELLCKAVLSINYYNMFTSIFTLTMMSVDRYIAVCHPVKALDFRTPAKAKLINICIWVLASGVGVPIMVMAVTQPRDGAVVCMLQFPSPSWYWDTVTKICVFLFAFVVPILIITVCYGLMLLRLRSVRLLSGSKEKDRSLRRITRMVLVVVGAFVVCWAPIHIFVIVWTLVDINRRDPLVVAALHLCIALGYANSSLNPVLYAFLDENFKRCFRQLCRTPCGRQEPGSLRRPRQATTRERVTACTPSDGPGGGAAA
The experiment in a line: other (direct radioligand binding).

The target of test [3] is T3, mouse delta opioid receptor (mORD1, …). The test is described as follows: competition.
In test [4] the target is T5, mouse kappa opioid receptor (mORK1, msl-1) (Mus musculus).
T5 chain: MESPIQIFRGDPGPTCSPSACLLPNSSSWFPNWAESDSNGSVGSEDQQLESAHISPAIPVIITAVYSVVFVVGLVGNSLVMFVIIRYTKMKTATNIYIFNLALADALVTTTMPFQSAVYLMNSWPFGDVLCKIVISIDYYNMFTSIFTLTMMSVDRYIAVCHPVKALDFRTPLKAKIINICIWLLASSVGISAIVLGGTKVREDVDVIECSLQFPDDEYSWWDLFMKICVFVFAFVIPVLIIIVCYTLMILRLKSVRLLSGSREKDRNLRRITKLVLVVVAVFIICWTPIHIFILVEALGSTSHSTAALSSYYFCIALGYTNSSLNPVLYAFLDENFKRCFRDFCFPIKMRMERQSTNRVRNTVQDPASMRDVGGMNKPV
The test is described as follows: competition.

B1: beta-Endorphin (protein)
chain: WCLESSQCQDLTTESNLLECIRACKPDLSAETPMFPGNGDEQPLTENPRKYVMGHFRWDRFGRRNSSSSGSSGAGQKREDVSAGEDCGPLPEGGPEPRSDGAKPGPREGKRSYSMEHFRWGKPVGKKRRPVKVYPNGAEDESAEAFPLEFKRELTGQRLREGDGPDGPADDGAGAQADLEHSLLVAAEKKDEGPYRMEHFRWGSPPKDKRYGGFMTSEKSQTPLVTLFKNAIIKNAYKKGE
One may read the Ki as a measure of affinity in units of concentration, obtained from inhibition or displacement. Low readings indicate tighter binding, high ones weaker binding. As to B1, the binding result (with MOP2; in test [2]) was “no binding” in each case. Besides, the Ki (with rat mu opioid receptor; in test [1]) was 1 nM throughout.

As usually defined, the IC50 is the midpoint of a concentration-inhibition curve. Regarding SANSNPAMAPRERKAGCKNFFWKTFTSC (disulfide 17-28 (inferred)) [SRIF], the IC50 in test [3] and in test [4] was above 1000 nM in each case.
